These results are taken from article PMC6057921.

Assay [1] concerns the target Arp2/3 complex (untagged, yeast) (yeast (RedStar yeast cakes)) (UniProt P32381). Kind of assay: SEC; Superdex 200 Increase 10/300 GL, 4 °C; 0.7 µM Arp2/3 complex and 7 µM Abp1 incubated >1 h on ice; 10 mM HEPES pH 7.0, 50 mM KCl, 1 mM EGTA, 2 mM MgCl2, 0.5 mM DTT, 0.1 mM ATP; bands of the peak fraction quantified on stain-free gels against standards. On the technique in general: SEC sorts molecules by how far they enter the pores of the column.

In assay [2] the target is SNAP-tagged S. cerevisiae Arp2/3 complex (dye-labelled) (S. cerevisiae) (UniProt P32381). Description: single-molecule TIRF colocalisation; 649-biotin-SNAP-Arp2/3 complex anchored by streptavidin; 20 nM Abp1-SNAP-549 flowed in; no actin; 0.25 s intervals for 120 s.
The target is the same in assay [3]. Description: single-molecule TIRF colocalisation; 649-biotin-SNAP-Arp2/3 complex anchored by streptavidin; 20 nM Abp1-SNAP-549 with 200 nM unlabeled Abp1 (220 nM total); 0.25 s intervals for 120 s; double exponential fit.
Assay [4] concerns the target Arp2/3 complex (untagged, yeast) (yeast (RedStar yeast cakes)) (UniProt P32381). Description: negative-stain single-particle electron microscopy; Abp1-SNAP and Arp2/3 complex at 1:1 molar ratio (100 nM each), 30 min at room temperature, uranyl formate stain; random conical tilt 3D reconstructions at 21 Å.
The target in assay [5] is Rabbit skeletal muscle actin (filaments) (rabbit) (UniProt P68135). Kind of assay: single-molecule TIRF colocalisation; as a1 with 0.5 µM Abp1 present; double exponential fit.
The target in assay [6] is Abp1-SNAP (S. cerevisiae Abp1 with C-terminal SNAP-tag, dye-labelled) (S. cerevisiae) (UniProt P15891). Description: single-molecule TIRF colocalisation; Abp1-SNAP-biotin-549 anchored by streptavidin; JF646-SNAP-Arp2/3 flowed in (10 nM in the results, 15 nM in the methods); no actin; 0.25 s intervals for 60 s.
The target in assay [7] is Rabbit skeletal muscle actin (filaments) (rabbit) (UniProt P68135). Kind of assay: single-molecule TIRF colocalisation; 10 nM JF646-SNAP-Arp2/3 on tethered, preformed unbranched OG-labeled actin filaments, no actin monomers, no Abp1; recorded at 0.15 s intervals; TIRF buffer pH 7.4; single exponential fit.

In assay [1], “Abp1 (S. cerevisiae, untagged after GST cleavage) (from UniProt P15891 1-592) (natural protein)” returned a stoichiometry N (Abp1 per Arp2/3 complex) of 2.
Take “Abp1-SNAP (S. cerevisiae Abp1 with C-terminal SNAP-tag, dye-labelled) (from UniProt P15891 1-592) (natural protein)”: the average lifetime in assay [2] amounted to 0.36 s. Moreover, the lifetime of long-lived interactions at 220 nM total Abp1 in assay [3] worked out at 36 s. For the same substance, the percent of particles in the Class 1 Abp1-bound reconstruction in assay [4] came to 30%.
“SNAP-tagged S. cerevisiae Arp2/3 complex (dye-labelled) (from UniProt P32381 1-391; P47117 1-449; P38328 1-384)” gave a lifetime of the longer-lived binding events with 0.5 µM Abp1 in assay [5] of 2 s. The average dwell time in assay [6] worked out at 0.37 s. Also, in assay [7], the average lifetime on filament sides was determined as 0.37 s.
